Laboratory results taken from patent US20090178146.

T1: GST-NFAT1(1-415) fusion protein (entire NFAT1 regulatory domain) expressed in bacterial cells
T1 sequence (Q13469 whole entry, species assumed, looked up): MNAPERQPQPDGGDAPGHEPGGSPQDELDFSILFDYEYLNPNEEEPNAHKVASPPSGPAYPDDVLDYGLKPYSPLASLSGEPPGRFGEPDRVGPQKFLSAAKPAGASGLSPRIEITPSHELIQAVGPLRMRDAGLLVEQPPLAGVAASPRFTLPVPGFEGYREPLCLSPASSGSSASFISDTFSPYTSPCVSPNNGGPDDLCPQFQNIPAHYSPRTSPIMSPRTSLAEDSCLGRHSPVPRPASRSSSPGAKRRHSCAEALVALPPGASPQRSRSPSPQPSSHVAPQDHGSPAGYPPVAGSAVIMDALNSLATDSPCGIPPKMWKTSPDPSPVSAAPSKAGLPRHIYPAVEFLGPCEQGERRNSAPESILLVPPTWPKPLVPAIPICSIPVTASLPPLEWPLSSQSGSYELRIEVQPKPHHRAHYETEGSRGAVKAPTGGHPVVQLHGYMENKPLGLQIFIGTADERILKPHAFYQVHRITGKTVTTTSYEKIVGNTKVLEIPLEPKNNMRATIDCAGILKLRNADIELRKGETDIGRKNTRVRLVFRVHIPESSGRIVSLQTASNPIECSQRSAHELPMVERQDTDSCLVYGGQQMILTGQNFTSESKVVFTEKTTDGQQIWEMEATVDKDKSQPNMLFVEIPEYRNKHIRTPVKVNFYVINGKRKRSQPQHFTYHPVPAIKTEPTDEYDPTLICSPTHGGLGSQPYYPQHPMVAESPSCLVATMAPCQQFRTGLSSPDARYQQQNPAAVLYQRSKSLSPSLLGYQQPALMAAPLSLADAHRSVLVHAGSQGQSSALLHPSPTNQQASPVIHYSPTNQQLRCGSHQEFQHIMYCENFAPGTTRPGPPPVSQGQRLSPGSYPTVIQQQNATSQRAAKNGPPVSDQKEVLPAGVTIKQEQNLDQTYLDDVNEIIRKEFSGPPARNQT

T2: GST-fused peptide corresponding to the SP-2 motif (amino acids 206-237) of NFAT1, wild type
T2 sequence (Q13469 whole entry, species assumed, looked up): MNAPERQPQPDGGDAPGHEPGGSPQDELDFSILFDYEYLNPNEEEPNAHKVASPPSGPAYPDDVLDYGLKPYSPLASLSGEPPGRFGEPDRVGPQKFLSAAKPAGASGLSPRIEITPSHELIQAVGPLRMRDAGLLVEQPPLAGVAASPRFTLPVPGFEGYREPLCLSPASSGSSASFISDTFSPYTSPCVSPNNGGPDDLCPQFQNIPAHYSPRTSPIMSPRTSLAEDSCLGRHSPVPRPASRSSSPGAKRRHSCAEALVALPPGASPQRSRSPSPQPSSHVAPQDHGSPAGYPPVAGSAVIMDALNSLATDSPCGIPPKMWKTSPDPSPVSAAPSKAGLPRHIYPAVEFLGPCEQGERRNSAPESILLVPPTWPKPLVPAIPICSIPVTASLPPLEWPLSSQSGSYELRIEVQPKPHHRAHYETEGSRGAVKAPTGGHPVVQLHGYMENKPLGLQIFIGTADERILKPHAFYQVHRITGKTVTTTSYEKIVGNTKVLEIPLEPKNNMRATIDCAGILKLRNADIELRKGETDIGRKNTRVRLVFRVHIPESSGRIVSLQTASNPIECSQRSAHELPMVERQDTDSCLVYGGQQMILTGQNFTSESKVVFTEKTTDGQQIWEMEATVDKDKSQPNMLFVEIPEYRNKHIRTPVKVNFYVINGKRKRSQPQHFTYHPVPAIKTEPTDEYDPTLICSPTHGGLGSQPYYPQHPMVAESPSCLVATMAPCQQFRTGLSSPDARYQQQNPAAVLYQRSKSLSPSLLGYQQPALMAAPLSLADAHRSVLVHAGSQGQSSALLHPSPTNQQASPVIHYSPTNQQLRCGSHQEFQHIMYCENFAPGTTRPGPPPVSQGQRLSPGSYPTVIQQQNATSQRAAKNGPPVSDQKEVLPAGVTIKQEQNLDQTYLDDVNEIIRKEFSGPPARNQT


Key:
[1] = target: T1, GST-NFAT1(1-415) fusion protein (entire …)
[2] = target: GST-fused peptide corresponding to the SP-3 motif (amino acids 264-295) of NFAT1, wild type
[3] = target: T2, GST-fused peptide corresponding to the …
[4] = target: GST-fused SP-3 peptide of NFAT1 (amino acids 264-295) with Ser>Ala substitutions in the serines phosphorylated in cells

| Protein | in vitro kinase assay, phosphorylation of GST-NFAT1 (1-415) (autoradiography) [1] | in vitro kinase assay, phosphorylation of GST-peptide [2] | in vitro kinase assay, phosphorylation of GST-peptide [3] | in vitro kinase assay with recombinant kinase, phosphorylation of GST-peptide [4] | in vitro kinase assay with recombinant kinase, phosphorylation of GST-peptide [2] |
| --- | --- | --- | --- | --- | --- |
| FLAG-tagged IRAK4 expressed in HEK293 cells and immunoprecipitated with anti-FLAG antibody (protein) MNKPITPSTYVRCLNVGLIRKLSDFIDPQEGWKKLAVAIKKPSGDDRYNQFHIRRFEALLQTGKSPTSELLFDWGTTNCTVGDLVDLLIQNEFFAPASLLLPDAVPKTANTLPSKEAITVQQKQMPFCDKDRTLMTPVQNLEQSYMPPDSSSPENKSLEVSDTRFHSFSFYELKNVTNNFDERPISVGGNKMGEGGFGVVYKGYVNNTTVAVKKLAAMVDITTEELKQQFDQEIKVMAKCQHENLVELLGFSSDGDDLCLVYVYMPNGSLLDRLSCLDGTPPLSWHMRCKIAQGAANGINFLHENHHIHRDIKSANILLDEAFTAKISDFGLARASEKFAQTVMTSRIVGTTAYMAPEALRGEITPKSDIYSFGVVLLEIITGLPAVDEHREPQLLLDIKEEIEDEEKTIEDYIDKKMNDADSTSVEAMYSVASQCLHEKKNKRPDIKKVQQLLQEMTAS | Three novel candidates-PRKG1, DYRK2 and IRAK4-showed strong activity in this assay | – | – | – | – |
| FLAG-tagged DYRK2 expressed in HEK293 cells and immunoprecipitated with anti-FLAG antibody (protein) MNDHLHVGSHAHGQIQVQQLFEDNSNKRTVLTTQPNGLTTVGKTGLPVVPERQLDSIHRRQGSSTSLKSMEGMGKVKATPMTPEQAMKQYMQKLTAFEHHEIFSYPEIYFLGLNAKKRQGMTGGPNNGGYDDDQGSYVQVPHDHVAYRYEVLKVIGKGSFGQVVKAYDHKVHQHVALKMVRNEKRFHRQAAEEIRILEHLRKQDKDNTMNVIHMLENFTFRNHICMTFELLSMNLYELIKKNKFQGFSLPLVRKFAHSILQCLDALHKNRIIHCDLKPENILLKQQGRSGIKVIDFGSSCYEHQRVYTYIQSRFYRAPEVILGARYGMPIDMWSLGCILAELLTGYPLLPGEDEGDQLACMIELLGMPSQKLLDASKRAKNFVSSKGYPRYCTVTTLSDGSVVLNGGRSRRGKLRGPPESREWGNALKGCDDPLFLDFLKQCLEWDPAVRMTPGQALRHPWLRRRLPKPPTGEKTSVKRITESTGAITSISKLPPPSSSASKLRTNLAQMTDANGNIQQRTVLPKLVS | Three novel candidates-PRKG1, DYRK2 and IRAK4-showed strong activity in this assay | phosphorylated peptides corresponding to the conserved SP-3 but not the SP-2 motif of the NFAT regulatory domain in vitro | phosphorylated peptides corresponding to the conserved SP-3 but not the SP-2 motif of the NFAT regulatory domain in vitro | – | – |
| recombinant DYRK2 protein kinase (Upstate Biotechnology), bacterially expressed (protein) MNDHLHVGSHAHGQIQVQQLFEDNSNKRTVLTTQPNGLTTVGKTGLPVVPERQLDSIHRRQGSSTSLKSMEGMGKVKATPMTPEQAMKQYMQKLTAFEHHEIFSYPEIYFLGLNAKKRQGMTGGPNNGGYDDDQGSYVQVPHDHVAYRYEVLKVIGKGSFGQVVKAYDHKVHQHVALKMVRNEKRFHRQAAEEIRILEHLRKQDKDNTMNVIHMLENFTFRNHICMTFELLSMNLYELIKKNKFQGFSLPLVRKFAHSILQCLDALHKNRIIHCDLKPENILLKQQGRSGIKVIDFGSSCYEHQRVYTYIQSRFYRAPEVILGARYGMPIDMWSLGCILAELLTGYPLLPGEDEGDQLACMIELLGMPSQKLLDASKRAKNFVSSKGYPRYCTVTTLSDGSVVLNGGRSRRGKLRGPPESREWGNALKGCDDPLFLDFLKQCLEWDPAVRMTPGQALRHPWLRRRLPKPPTGEKTSVKRITESTGAITSISKLPPPSSSASKLRTNLAQMTDANGNIQQRTVLPKLVS | – | – | – | neither kinase phosphorylated an SP-3 peptide with Ser>Ala substitutions in the specific serine residues known to be phosphorylated in cells | DYRK2 and DYRK1A both displayed strong and selective kinase activity towards the SP-3 motif of NFAT1 |
| FLAG-tagged PRKG1 expressed in HEK293 cells and immunoprecipitated with anti-FLAG antibody (protein) MSELEEDFAKILMLKEERIKELEKRLSEKEEEIQELKRKLHKCQSVLPVPSTHIGPRTTRAQGISAEPQTYRSFHDLRQAFRKFTKSERSKDLIKEAILDNDFMKNLELSQIQEIVDCMYPVEYGKDSCIIKEGDVGSLVYVMEDGKVEVTKEGVKLCTMGPGKVFGELAILYNCTRTATVKTLVNVKLWAIDRQCFQTIMMRTGLIKHTEYMEFLKSVPTFQSLPEEILSKLADVLEETHYENGEYIIRQGARGDTFFIISKGTVNVTREDSPSEDPVFLRTLGKGDWFGEKALQGEDVRTANVIAAEAVTCLVIDRDSFKHLIGGLDDVSNKAYEDAEAKAKYEAEAAFFANLKLSDFNIIDTLGVGGFGRVELVQLKSEESKTFAMKILKKRHIVDTRQQEHIRSEKQIMQGAHSDFIVRLYRTFKDSKYLYMLMEACLGGELWTILRDRGSFEDSTTRFYTACVVEAFAYLHSKGIIYRDLKPENLILDHRGYAKLVDFGFAKKIGFGKKTWTFCGTPEYVAPEIILNKGHDISADYWSLGILMYELLTGSPPFSGPDPMKTYNIILRGIDMIEFPKKIAKNAANLIKKLCRDNPSERLGNLKNGVKDIQKHKWFEGFNWEGLRKGTLTPPIIPSVASPTDTSNFDSFPEDNDEPPPDDNSGWDIDF | Three novel candidates-PRKG1, DYRK2 and IRAK4-showed strong activity in this assay | – | – | – | – |
